Measurements as given in patent US20260132197A1.

What was measured:
[1] = molecular target: wild type human CD47 (Acro Biosystems, cat. no. CD7-H5227) (human) (UniProt Q08722); test: SPR, IgG captured, CD47 in flow; exp 4
[2] = molecular target: Human CD47-C33G (human) (UniProt Q08722); test: SPR, IgG captured, CD47 in flow; exp 4
[3] = molecular target: wild type human CD47 (Acro Biosystems, cat. no. CD7-H5227) (human) (UniProt Q08722); test: SPR, IgG captured, CD47 in flow; exp 2
[4] = molecular target: Human CD47-C33G (human) (UniProt Q08722); test: SPR, IgG captured, CD47 in flow; exp 2
[5] = molecular target: Human CD47-C33G (human) (UniProt Q08722); test: SPR, IgG captured, CD47 in flow; exp 3; estimated, out of instrument limit
[6] = molecular target: Human CD47-C33G (human) (UniProt Q08722); test: SPR, IgG captured, CD47 in flow; exp 2; estimated, out of instrument limit
[7] = molecular target: wild type human CD47 (Acro Biosystems, cat. no. CD7-H5227) (human) (UniProt Q08722); test: SPR, IgG captured, CD47 in flow; exp 3
[8] = molecular target: Human CD47-C33G (human) (UniProt Q08722); test: SPR, IgG captured, CD47 in flow; exp 3
[9] = molecular target: human CD47 on cells (SHP-77 tumor cells, human red blood cells, CCRF-CEM cells, human CD47 CHO-K1 stable cell line) (human) (UniProt Q08722); test: flow cytometry on SHP-77 cells
[10] = molecular target: cynomolgus CD47 on CHO-K1 stable cell line (cynomolgus); test: flow cytometry on cynomolgus CD47 CHO-K1 cells; plateau not reached, not accurate
[11] = molecular target: wild type human CD47 (Acro Biosystems, cat. no. CD7-H5227) (human) (UniProt Q08722); test: SPR, IgG captured, CD47 in flow; exp 1
[12] = molecular target: Human CD47-C33G (human) (UniProt Q08722); test: SPR, IgG captured, CD47 in flow; exp 1
[13] = molecular target: human CD47 on cells (SHP-77 tumor cells, human red blood cells, CCRF-CEM cells, human CD47 CHO-K1 stable cell line) (human) (UniProt Q08722); test: flow cytometry on human RBCs
[14] = molecular target: human CD47 on cells (SHP-77 tumor cells, human red blood cells, CCRF-CEM cells, human CD47 CHO-K1 stable cell line) (human) (UniProt Q08722); test: flow cytometry on human CD47 CHO-K1 cells; plateau not reached, not accurate
[15] = molecular target: wild type human CD47 (Acro Biosystems, cat. no. CD7-H5227) (human) (UniProt Q08722); test: SPR, IgG captured, CD47 in flow; exp 2; remark: listed apart in the source
[16] = molecular target: Human CD47-C33G (human) (UniProt Q08722); test: SPR, IgG captured, CD47 in flow; exp 2; remark: listed apart in the source
[17] = molecular target: wild type human CD47 (Acro Biosystems, cat. no. CD7-H5227) (human) (UniProt Q08722); test: SPR, IgG captured, CD47 in flow; exp 1; remark: listed apart in the source
[18] = molecular target: Human CD47-C33G (human) (UniProt Q08722); test: SPR, IgG captured, CD47 in flow; exp 1; remark: listed apart in the source
[19] = molecular target: human CD47 on cells (SHP-77 tumor cells, human red blood cells, CCRF-CEM cells, human CD47 CHO-K1 stable cell line) (human) (UniProt Q08722); test: cell-based or functional assay
[20] = molecular target: Human CD47-C33G (human) (UniProt Q08722); test: SPR, IgG captured, CD47 in flow; exp 1; estimated, out of instrument limit

cynomolgus CD47 on CHO-K1 stable cell line (cynomolgus), sequence (chain, as listed by the source): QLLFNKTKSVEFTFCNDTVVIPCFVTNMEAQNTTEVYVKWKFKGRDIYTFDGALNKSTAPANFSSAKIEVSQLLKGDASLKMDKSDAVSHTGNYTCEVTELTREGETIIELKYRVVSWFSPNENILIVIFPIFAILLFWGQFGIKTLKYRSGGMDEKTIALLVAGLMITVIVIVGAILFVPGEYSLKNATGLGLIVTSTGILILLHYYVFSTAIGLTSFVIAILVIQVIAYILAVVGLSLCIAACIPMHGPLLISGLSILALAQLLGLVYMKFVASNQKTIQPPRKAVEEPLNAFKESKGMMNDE

B1: TJC4 positive control antibody (antibody, INN chains, looked up, V domains shown)
VH: EVQLVESGGGLVKPGGSLRLSCAASGLTFERAWMNWVRQAPGKGLEWVGRIKRKTDGETTDYAAPVKGRFSISRDDSKNTLYLQMNSLKTEDTAVYYCAGSNRAFDIWGQGTMVTVSS
VL: DIVMTQSPDSLAVSLGERATINCKSSQSVLYAGNNRNYLAWYQQKPGQPPKLLINQASTRASGVPDRFSGSGSGTEFTLIISSLQAEDVAIYYCQQYYTPPLAFGGGTKLEIK
Q: What does the source list for B1?
A: Kd [1]: 4.7 nM; koff [1]: 0.0018 s⁻¹; kon [1]: 380000 M⁻¹ s⁻¹; Kd [2]: 600 nM; koff [2]: 0.13 s⁻¹; kon [2]: 210000 M⁻¹ s⁻¹; Kd [3]: 4.4 nM; kon [3]: 550000 M⁻¹ s⁻¹; Kd [4]: 540 nM; koff [4]: 0.09 s⁻¹; kon [4]: 170000 M⁻¹ s⁻¹; Kd [5]: > 630 nM; koff [5]: > 0.1 s⁻¹; Kd [6]: > 200 nM; Kd [7]: 4.7 nM; koff [7]: 0.0022 s⁻¹; kon [7]: 460000 M⁻¹ s⁻¹; kon [8]: 160000 M⁻¹ s⁻¹; EC50 [9]: 2.8 nM; Fitted maximal MFI [9]: 25400 MFI; EC50 [10]: 9.7 nM; Kd [11]: 4.4 nM; koff [11]: 0.0024 s⁻¹; kon [11]: 550000 M⁻¹ s⁻¹; Kd [12]: 540 nM; koff [12]: 0.09 s⁻¹; kon [12]: 170000 M⁻¹ s⁻¹; EC50 [13]: 4.3 nM; Fitted maximal MFI [13]: 21400 MFI; EC50 [14]: 5.7 nM; Kd [15]: 4.3 nM; koff [15]: 0.0024 s⁻¹; kon [15]: 540000 M⁻¹ s⁻¹; kon [16]: 490000 M⁻¹ s⁻¹; Kd [17]: 4.5 nM; koff [17]: 0.0022 s⁻¹; kon [17]: 500000 M⁻¹ s⁻¹; kon [18]: 190000 M⁻¹ s⁻¹; CCRF-CEM phagocytosis EC50 [19]: 0.49 nM; CCRF-CEM phagocytosis, Phagocytosis (%) [19]: 68.6%; Kd [20]: > 530 nM; koff [20]: > 0.1 s⁻¹
